Assay [1] concerns the target T1, MSNW10, recombinant full length human MSLN (human, UniProt Q13421 296-598).
T1 construct: also called MSNW10.002; FL-MSLN
As to the kind of experiment: SPR, recombinant full-length human MSLN. (In general: Surface plasmon resonance follows binding to a sensor surface in real time, without labels.)

Assay [2] concerns the target T2, 8 AA stub (a.a. 296-303 of SEQ ID NO: 247) (human).
T2 construct: also called 8 AA Peptide; peptide of the last 8 C-terminal amino acids
T2 peptide: LSMQEALS
Nature of the assay: competition of OVCAR8 cell binding by the peptide.

The target in assay [3] is T3, 11 AA stub (a.a. 293-303 of SEQ ID NO: 247) (human).
T3 peptide: VLDLSMQEALS
As to the kind of experiment: SPR, mAb captured, peptide injected. As to the method: (§1) The binding was assessed by SPR. Briefly, GAH-Fc was used to capture mAbs on C4 sensor chip followed by antigen injection starting at 30 nM (14 amino acid stub), 100 nM (10-13 amino acid stubs), or 1000 nM (7-9 amino acid stubs) progressing in a 3-fold dilution series in single cycle kinetics mode. HBSP+0.01% BSA was used in the assay.

Assay [4] has as its target T4, 14 AA stub (a.a. 290-303 of SEQ ID NO: 247) (human).
T4 peptide: GYLVLDLSMQEALS
As to the kind of experiment: SPR, mAb captured, peptide injected. As to the method: as §1

The target of assay [5] is T5, 7 AA stub (a.a. 297-303 of SEQ ID NO: 247) (human).
T5 peptide: SMQEALS
As to the kind of experiment: SPR, mAb captured, peptide injected. The protocol:
as §1

In assay [6] the target is T6, 9 AA stub (a.a. 295-303 of SEQ ID NO: 247) (human).
T6 peptide: DLSMQEALS
As to the kind of experiment: SPR, mAb captured, peptide injected. As to the method: as §1

Assay [7] addresses T7, 10 AA stub (a.a. 294-303 of SEQ ID NO: 247) (human).
T7 peptide: LDLSMQEALS
As to the kind of experiment: SPR, mAb captured, peptide injected. The protocol: as §1

For assay [8], the target named is T8, 13 AA stub (a.a. 291-303 of SEQ ID NO: 247) (human).
T8 peptide: YLVLDLSMQEALS
Nature of the assay: SPR, mAb captured, peptide injected. As to the method: as §1

Assay [9] concerns the target T9, 12 AA stub region peptide LVLDLSMQEALS (human).
T9 construct: free N-terminus; also called 12 AA Peptide
T9 peptide: LVLDLSMQEALS
As to the kind of experiment: SPR.

In assay [10] the target is T10, human MSLN on the cell surface (human, UniProt Q13421 296-598).
T10 construct: on cells stands the processed GPI-anchored 40 kDa MSLN; also called membrane MSLN; MSLN on H838, OVCAR-8 (OVCAR8), OVCAR-8 K1/C8, SK-OV-3 cells
T10 sequence (Q13421 other isoform, or with tags, fused parts or gaps limits assumed): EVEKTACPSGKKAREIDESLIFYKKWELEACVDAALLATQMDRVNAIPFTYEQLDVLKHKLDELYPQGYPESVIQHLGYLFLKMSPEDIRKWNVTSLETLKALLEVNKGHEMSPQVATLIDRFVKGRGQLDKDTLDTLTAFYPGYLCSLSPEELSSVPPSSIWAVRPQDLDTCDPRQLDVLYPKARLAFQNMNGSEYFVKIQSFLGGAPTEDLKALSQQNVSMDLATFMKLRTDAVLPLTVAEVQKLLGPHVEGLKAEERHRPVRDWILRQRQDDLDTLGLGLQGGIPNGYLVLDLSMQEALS
Nature of the assay: high content imaging, surface staining of OVCAR8 cells. The protocol: OVCAR8 cells were cultured in RPMI 1640 medium supplemented with 10% FCS, 1% L-glutamine and 1% Gentamycin and seeded in Greiner CELLSTAR plate one day before experiment. 24 h after seeding, antibody mixture was prepared by diluting MSLN and control antibodies in Table 21 in full media containing CellMask™ Deep Red Plasma Membrane Stain (ThermoFisher, C10046) in 12 concentrations each with 3 folds dilution starting from 20 μg/ml and 20 μl of which were added directly to the cells in 20 μl. Antibodies were allowed for binding to the cell surface for 2h inside the incubator (37°) C. and the surface bound antibodies were fixed for 15 min at RT by directly adding 30 ul of 10% Formaldehyde (04018-1, Polysciences). Afterwards residual Formaldehyde was removed by washing the cells twice with PBS and the primary antibodies were stained with secondary antibodies (Alexa Fluor 488 goat anti-human IgG, Invitrogen, A11013) complemented with Hoechst 33342 (H3570, ThermoFisher) and HCS CellMask™ Deep Red Stain (ThermoFisher, H32721) in PBS for 1h at RT. After removing unbound antibodies and other dyes by washing the cells 3 times with PBS cells were imaged on the CellVoyager 7000 (Yokogawa, Tokyo, Japan) using a 40×/0.95 objective. Of each well, 9 fields were imaged. Image analysis was performed with Acapella (PerkinElmer, Waltham, MA, USA) and the results stored in Phaedra (OpenAnalytics, Antwerp, Belgium). Data analysis was done in R (www.r-project.org).
The data was then fitted using the four-parameter logistic using least-squares regression, keeping the lower boundary fixed at 0.

Assay [11] deals with T10, human MSLN on the cell surface. Nature of the assay: binding to H838 cells with and without 100 nM recombinant shed MSLN (MSNW11); the two curves lie on each other. The text has this:
(§2) Table 16 lists the immunization campaigns, antigens used, and number of clones returned at each stage of screening. Clones from which antibody sequences were successfully recovered were first screened for binding to recombinant full length human MSLN (MSNW10) and H838 cells that express MSLN on the cell surface. Binders were further screened for binding to cells in the presence of recombinant soluble MSLN lacking the C-terminal 7 AAs (MSNW11). This form of recombinant MSLN represented the product of cleavage at the closest cleavage site to the C-terminus known at the time, therefore, it theoretically represented the longest form of shed MSLN. The final concentration of shed MSLN in the assays was 100 nM.

Assay [12] concerns the target T11, MSNW11, recombinant soluble (shed) MSLN lacking the C-terminal 7 AAs (human, UniProt Q13421 296-591).
T11 construct: domain: soluble MSLN lacking the C-terminal 7 AAs; also called MSNW11.002; soluble MSLN
As to the kind of experiment: H838 cell binding with shed MSLN (MSNW11) added.
Description: as §2

The target in assay [13] is T1, MSNW10, recombinant full length human …. Nature of the assay: SPR, additional experiments.
Assay [14] has as its target T2, 8 AA stub (a.a. 296-303 of SEQ ID NO: …). As to the kind of experiment: SPR, mAb captured, peptide injected. The protocol: as §1
The target of assay [15] is T9, 12 AA stub region peptide LVLDLSMQEALS
As to the kind of experiment: SPR, mAb captured, peptide injected. As to the method: as §1

The target of assay [16] is T12, CD3 epsilon on human T-cells (human, UniProt P07766 23-207). As to the kind of experiment: cell-based or functional assay.
T12 sequence (P07766 23-207 limits assumed): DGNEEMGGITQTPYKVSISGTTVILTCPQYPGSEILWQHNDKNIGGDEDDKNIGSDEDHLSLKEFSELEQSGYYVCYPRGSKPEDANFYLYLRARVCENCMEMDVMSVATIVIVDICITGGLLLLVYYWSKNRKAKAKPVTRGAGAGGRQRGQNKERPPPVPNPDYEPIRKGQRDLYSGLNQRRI
Assay [17] has as its target T10, human MSLN on the cell surface. Nature of the assay: flow cytometry (MFI PE) on OVCAR-8 cells.
The target in assay [18] is T12, CD3 epsilon on human T-cells. As to the kind of experiment: cell-based or functional assay. The source holds these as a separate data set.
The target is the same in assay [19]. Nature of the assay: T-cell binding assay, FIG. 15.
Assay [20] deals with T13, MSLN with Met593Val on cells homozygous for SNP rs1135210 (SNP G|G) (human, UniProt Q13421 296-598).
T13 construct: also called homozygous SNP-positive cells; BxPC3, NCI-H322
T13 sequence (Q13421 other isoform, or with tags, fused parts or gaps M593V M593V limits assumed): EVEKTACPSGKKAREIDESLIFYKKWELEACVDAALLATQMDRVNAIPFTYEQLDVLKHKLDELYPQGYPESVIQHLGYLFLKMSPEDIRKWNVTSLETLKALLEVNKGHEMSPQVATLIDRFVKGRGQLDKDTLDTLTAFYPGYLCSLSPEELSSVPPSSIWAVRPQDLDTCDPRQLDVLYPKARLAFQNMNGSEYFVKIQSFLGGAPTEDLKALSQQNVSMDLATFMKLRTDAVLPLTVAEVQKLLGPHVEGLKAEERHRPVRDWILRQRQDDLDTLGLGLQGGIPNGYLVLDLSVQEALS
Nature of the assay: binding to homozygous SNP-positive cells.

T11 sequence (Q13421 other isoform, or with tags, fused parts or gaps limits assumed): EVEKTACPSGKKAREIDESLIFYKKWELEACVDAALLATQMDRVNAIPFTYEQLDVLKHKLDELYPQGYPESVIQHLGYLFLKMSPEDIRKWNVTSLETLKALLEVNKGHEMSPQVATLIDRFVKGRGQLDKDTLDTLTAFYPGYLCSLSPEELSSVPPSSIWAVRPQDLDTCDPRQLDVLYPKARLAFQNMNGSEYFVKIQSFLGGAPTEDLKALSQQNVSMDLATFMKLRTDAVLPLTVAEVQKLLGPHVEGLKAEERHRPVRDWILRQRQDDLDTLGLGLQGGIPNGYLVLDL
T1 sequence (Q13421 other isoform, or with tags, fused parts or gaps limits assumed): as the sequence (Q13421 other isoform, or with tags, fused parts or gaps M593V M593V limits assumed) above, with V298M counted along it

B1: MSNB124 (antibody, V domains shown)
VH: QVQLQQSGPGLVKPSQTLSLTCAISGDSVSSNSVAWHWIRQSPSRGLEWLGRTYHRSKWYNDYAVSVKSRITINPDTSKNQFSLQLNSVTPEDTAVYYCARQILGALDYWGQGTLVTVSS
VL: DIVMTQTPLSLPVTPGEPASISCRSSQSLQFGNGNYLDWYLQKPGQSPQLLIYLGSNRASGVPDRFSGSGSGTDFTLKISRVEAEDVGVYYCMQVLQIPFTFGPGTKVDIK
notes: mAb
As to B1, the Kd in assay [1] is 6.4 nM; in assay [8] it was 14 nM. For the same molecule, the binding result was “no binding” in [2]; “no binding (tested: 100 nM)” in assay [3]; “binds” in [4]; “no binding (tested: 1000 nM)” in assay [5]; “no binding (tested: 1000 nM)” in assay [6]; “no binding (tested: 100 nM)” in assay [7]. Besides, the binding result was “binds” in assay [9] and “no binding (tested: 100 nM)” in assay [12]. Besides, the IC50 in assay [10] turned out to be 0.0735 µg/mL. For the same molecule, the “Maximum Value (arbitrary units)” value in assay [10] amounted to 1.46e+07 arbitrary units. In addition, the “EC50 (read off the curve)” value in assay [11] was ~0.4 nM.

B2: MSLNB569 (antibody, V domains shown)
VH: QVQLQQSGPGLVKPSQTLSLTCAISGDSVSSTRAAWNWIRQSPSRGLEWLGRTYYRSKWYNDYTVSVKSRITINPDTSKNQFSLHLNSVTPEDSAVYFCARGNVGRVDFWGQGTLVTVSS
VL: EIVMTQSPLSLPVTPGEPASISCRSSQSLLHSDGYNYLDWYLQKPGQSPQLLIYLGSNRASGVPDRFSGSGSDTDFTLKISRVEAEDVGVYYCMQGLRTPLTFGPGTKVDIK
notes: mAb; also called MSLNB569.001; MSNB569
On to B2, for which the Kd in [13] was 3.4 nM; in assay [4], 1.99 nM; in [8] it was 5.99 nM; in assay [15], 4.06 nM. The binding result in [3] is “no binding (tested: 100 nM)”; in assay [5], “no binding (tested: 1000 nM)”; in assay [6], “no binding (tested: 1000 nM)”; in assay [7], “no binding (tested: 100 nM)”; in [14], “no binding (tested: 1000 nM)”; in assay [12], “no binding (tested: 100 nM)”. Moreover, half-maximal inhibition in [10] (IC50) required 0.166 µg/mL. Moreover, the “Maximum Value (arbitrary units)” value in assay [10] worked out at 1.6e+07 arbitrary units.

B3: MNC3B55 (bispecific antibody)
scFv: EVQLVESGGGLVKPGGSLRLSCAASGFTFSRYNMNWVRQAPGKGLEWVSSISTSSNYIYYADSVKGRFTFSRDNAKNSLDLQMSGLRAEDTAIYYCTRGWGPFDYWGQGTLVTVSSGGSEGKSSGSGSESKSTGGSDIQMTQSPSSLSASVGDRVTITCRARQSIGTAIHWYQQKPGKAPKLLIKYASESISGVPSRFSGSGSGTDFTLTISSLQPEDFATYYCQQSGSWPYTFGQGTKLEIK
VH: QVQLVESGPGQVKPSQTLSLTCAISGDSVSSNSAAWNWIRQSPSRGLEWLGRTYYRSKWYNDYAVSVKSRITINPDTSKNQFSLQLNSVTPEDTAVYYCARRDYSSGGFDYWGQGTTVTVSS
VL: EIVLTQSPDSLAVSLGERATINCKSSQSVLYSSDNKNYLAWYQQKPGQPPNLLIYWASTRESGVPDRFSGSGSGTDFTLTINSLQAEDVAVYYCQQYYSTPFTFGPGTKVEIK
With B3, the “cytotoxicity EC50, NCI-H838 cells, pan T-cells 5:1 E:T, 48 hours” value in assay [16] amounted to 0.027 nM.

B4: MNC3B193 (bispecific antibody)
scFv: DIQMTQSPSSLSASVGDRVTITCRARQSIGTAIHWYQQKPGKAPKLLIKYASESISGVPSRFSGSGSGTDFTLTISSLQPEDFATYYCQQSGSWPYTFGQGTKLEIKGGSEGKSSGSGSESKSTGGSEVQLVESGGGLVKPGGSLRLSCAASGFTFSRYNMNWVRQAPGKGLEWVSSISTSSNYIYYADSVKGRFTFSRDNAKNSLDLQMSGLRAEDTAIYYCTRGWGPFDYWGQGTLVTVSS
VH: QVQLVESGPGQVKPSQTLSLTCAISGDSVSSNSAAWNWIRQSPSRGLEWLGRTYYRSKWYNDYAVSVKSRITINPDTSKNQFSLQLNSVTPEDTAVYYCARRDYSSGGFDYWGQGTTVTVSS
VL: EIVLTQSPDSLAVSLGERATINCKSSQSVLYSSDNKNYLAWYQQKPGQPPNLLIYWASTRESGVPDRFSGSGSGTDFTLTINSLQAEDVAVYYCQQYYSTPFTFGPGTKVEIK
notes: Bipod: MSNB457 Fab x CD3W245 LH scFv-Fc; also called CD3W245 LH containing Bipod
For the molecule B4, in assay [17], the “EC50 (read off the curve)” value is ~8 nM. Besides, in assay [18], the “AC90 [nM], cytotoxicity, 1:1 E:T, 72 hours” value was determined as 0.25 nM; the “Max. Activity, cytotoxicity, 1:1 E:T, 72 hours” value came out at 91%; the “qAC50 [nM], cytotoxicity, 1:1 E:T, 72 hours” value is 0.1 nM. In addition, in assay [19], a half-maximal effect (EC50) was put at 46 nM.

B5: MNC3B130 (bispecific antibody)
scFv: DIQMTQSPSSLSASVGDRVTITCRARQSIGTAIHWYQQKPGKAPKLLIKYASESISGVPSRFSGSGSGTDFTLTISSLQPEDFATYYCQQSGSWPYTFGQGTKLEIKGGSEGKSSGSGSESKSTGGSEVQLVESGGGLVKPGGSLRLSCAASGFTFSRYNMNWVRQAPGKGLEWVSSISTSSNYIYYADSVKGRFTFSRDNAKNSLDLQMSGLRAEDTAIYYCTRGWGPFDYWGQGTLVTVSS
VH: QVQLVESGPGQVKPSQTLSLTCAISGDSVSSNSAAWNWIRQSPSRGLEWLGRTYYRSKWYNDYAVSVKSRITINPDTSKNQFSLQLNSVTPEDTAVYYCARRDYSSGGFDYWGQGTTVTVSS
VL: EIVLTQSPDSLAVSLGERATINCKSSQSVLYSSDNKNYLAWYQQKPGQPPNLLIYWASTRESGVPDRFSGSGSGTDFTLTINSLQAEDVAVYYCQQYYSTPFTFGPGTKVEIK
notes: MSNB457 Fab x CD3W245 LH scFv; Fc chain 1 T350V/L351Y/F405A/Y407V, Fc chain 2 T350V/T366L/K392/T394W; also called mrMSLN-MSNB457 x W245LH alternative heterodimerization scaffold
In the case of B5, the binding result in [20] is recorded as “no binding”. In addition, the “cytotoxicity EC50, NCI-H838 cells, pan T-cells 5:1 E:T, 48 hours” value in [16] amounted to 0.15 nM.

B6: MSLNB591 (antibody, V domains shown)
VH: QVQLQQSGPGLVKPSQTLSLTCGISGDSVSSSSVAWNWIRQSPSRGLEWLGRTYYRSKWYNDYAISVRSRVTINPDTSKNQFSLQLNSVTPEDTAVYYCSRGVVGALDYWGQGTLVTVSS
VL: DIVMTQSPLSLTVTPGEPASISCRSSQSLLFTNGYNSLDWYLQKPGQSPQFLIYLVSNRASGVPDRFSGSGSGTDFTLKISRVEAEDVGVYYCMQALRTPYTFGQGTKVDIK
notes: mAb; also called MSNB591
On to B6, for which the Kd in assay [13] is 0.3 nM; in assay [4] it was 0.563 nM; in assay [8], 1.08 nM; in [15], 2.04 nM. Besides, the binding result in assay [3] is “no binding (tested: 100 nM)”; in assay [5] it was “no binding (tested: 1000 nM)”; in assay [6], “no binding (tested: 1000 nM)”; in assay [7], “no binding (tested: 100 nM)”; in assay [14] it was “no binding (tested: 1000 nM)”; in [12], “no binding (tested: 100 nM)”.

Broadly, the Kd is the constant that tells how readily two partners part at equilibrium. One may read the IC50 as the concentration at which inhibition is half-maximal. A high value points to weaker potency in that assay. One may read the EC50 (read off the curve) as the concentration that produces a half-maximal response. Broadly, the EC50 is the concentration needed to bring the measured effect to its halfway point. Lower therefore signals higher potency in that assay.

The values are drawn from US20240166737A1 (Janssen / Centocor, published 2024).
